Laboratory results as given in US20250320312A1 (OXITOPE PHARMA B V, published 2025).
Changes are numbered by the printed parent chain.

T1: Peptide 4: Biotin-AGGGGSGGGGSGGGGSAAA-Tyr-acid (N-terminal biotin; C-terminal acid; no PC)
T1 construct: control peptide without PC
T1 peptide: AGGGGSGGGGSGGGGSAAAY

T2: Peptide 8: Biotin-AEAAAKEAAAKEAAAKEAAAKAAA-Tyr-acid (N-terminal biotin; C-terminal acid; no PC)
T2 construct: control peptide without PC
T2 peptide: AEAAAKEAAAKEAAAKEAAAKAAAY

B1: PcOxP_DB03_H09 (scFv, V domains shown)
VH: EVQLLESGGGLVQPGGSLRLSCAASGFTFSDAYMEWVRQAPGKGLEWVAASRNKANSYTTEYADSVKGRFTISRDNSKNTLYLQMNSLRAEDTAVYYCARDYYGSSYWYFDVWGQGTLVTVSS
VL: DIQMTQSPSSLSASVGDRVTITCTASESLYSSKHKVHYLAWYQQKPGKAPKLLIYGASNRYIGVPSRFSGSGSGTDFTLTISSLQPEDFATYYCAEFYSYPLTFGGGTKVEIK
notes: scFv in periplasmic extract
B2: PcOxP_DB04_H03 (scFv, V domains shown)
VH: B1 VH with T28P, A32F, S57D
VL: DIQMTQSPSSLSASVGDRVTITCRASESLYSSLHKYLAWYQQKPGKAPKLLIYGASNLQIGVPSRFSGSGSGTDFTLTISSLQPEDFATYYCAQFYSYPLTFGGGTKVEIK
notes: scFv in periplasmic extract
B3: PcOxP_DB01_A03 (scFv, V domains shown)
VH: B1 VH with A32Y, S57D
VL: DIVMTQSPDSLAVSLGERATINCTASESLYSSKHKVHYLAWYQQKPGQPPKLLIYGASNRYIGVPDRFSGSGSGTDFTLTISSLQAEDVAVYYCAQFYSYPLTFGGGTKVEIK
notes: scFv in periplasmic extract
B4: PcOxP_DB03_H03 (scFv, V domains shown)
VH: B1 VH with F29G, A32F, A55W, S57D
VL: DIQMTQSPSSLSASVGDRVTITCTASESLSSSKHKHYLAWYQQKPGKAPKLLIYGASSRYSGVPSRFSGSGSGTDFTLTISSLQPEDFATYYCAQFYSYPLTFGGGTKVEIK
notes: scFv in periplasmic extract
B5: PcOxP_DB04_D08 (scFv, V domains shown)
VH: B1 VH with A32H, S57D
VL: B1 VL with Y61A, E96Q, S99T
notes: scFv in periplasmic extract
B6: PcOxP_DB01_B12 (scFv, V domains shown)
VH: B1 VH with D31S, A32Y, A55G
VL: B3 VL with A95G
notes: scFv in periplasmic extract
B7: PcOxP_DB04_C08 (scFv, V domains shown)
VH: B1 VH with F27E, A32F, S57D
VL: B1 VL with K35G, E96Q, S99Q
notes: scFv in periplasmic extract
B8: PcOxP_DB01_C09 (scFv, V domains shown)
VH: B1 VH with A32F, S57D
VL: B3 VL with E27Q, L29V, H34N
notes: scFv in periplasmic extract
B9: PcOxP_DB04_A09 (scFv, V domains shown)
VH: B1 VH with A32Y, A55W, S57D
VL: B1 VL with S26E, R60L, I62S, E96Q
notes: scFv in periplasmic extract
B10: PcOxP_DB04_C03 (scFv, V domains shown)
VH: B1 VH with F29T, A32F
VL: B1 VL with N59S, R60L, I62S, E96Q, S99E
notes: scFv in periplasmic extract
B11: PcOxP_DB01_B10 (scFv, V domains shown)
VH: B1 VH with A32F, S57D, E61T, Y107H
VL: B3 VL with H34G, A95V
notes: scFv in periplasmic extract
B12: PcOxP_DB04_A10 (scFv, V domains shown)
VH: B1 VH with F27D, A32F, A55W, S57D
VL: B1 VL with Y61Q, E96Q
notes: scFv in periplasmic extract
B13: PcOxP_DB04_G06 (scFv, V domains shown)
VH: B1 VH with A32F, N53W, S57D, G104E
VL: B1 VL with E27Q, E96Q, S99V
notes: scFv in periplasmic extract
B14: PcOxP_DB01_C07 (scFv, V domains shown)
VH: B1 VH with A32Y, S57D
VL: B3 VL with I62D
notes: scFv in periplasmic extract
B15: PcOxP_DB04_B08 (scFv, V domains shown)
VH: B1 VH with A32D, S57D
VL: B1 VL with A57L, E96Q, Y98F
notes: scFv in periplasmic extract
B16: PcOxP_DB04_H08 (scFv, V domains shown)
VH: B1 VH with A32G, S57D
VL: B1 VL with R60L, I62S, E96Q
notes: scFv in periplasmic extract
B17: PcOxP_DB01_C10 (scFv, V domains shown)
VH: B1 VH with A32F, S57D
VL: B3 VL with A25S, E27Q, Y30L, K33S, K35N, V36K, H37N
notes: scFv in periplasmic extract
B18: PcOxP_DB04_F06 (scFv, V domains shown)
VH: B1 VH with F27D, A32F, S57D
VL: B1 VL with Y30S, E96Q
notes: scFv in periplasmic extract
B19: PcOxP_DB04_H07 (scFv, V domains shown)
VH: B1 VH with S30E, A32F, S57D
VL: B1 VL with Y61V, E96Q
notes: scFv in periplasmic extract
B20: PcOxP_DB04_A12 (scFv, V domains shown)
VH: B1 VH with A32G, A55W, S57D
VL: B1 VL with I62D, E96Q
notes: scFv in periplasmic extract
B21: PcOxP_DB01_A04 (scFv, V domains shown)
VH: B1 VH with F29H, A32F, S57D
VL: B3 VL
notes: scFv in periplasmic extract
B22: PcOxP_DB04_F11 (scFv, V domains shown)
VH: B1 VH with F29G, A32F, N53G, A55G, Y107T
VL: B1 VL with I62A, A95G, E96Q
notes: scFv in periplasmic extract
B23: PcOxP_DB01_A08 (scFv, V domains shown)
VH: B1 VH with F29Q, A32F, S51I
VL: B3 VL with L29V, H34N, V36K
notes: scFv in periplasmic extract
B24: PcOxP_DB04_A07 (scFv, V domains shown)
VH: B1 VH with F29Q, A32F, S57D
VL: B1 VL with A57I, E96Q
notes: scFv in periplasmic extract
B25: PcOxP_DB01_B02 (scFv, V domains shown)
VH: B1 VH with F27G, A32F, E61A
VL: B3 VL
notes: scFv in periplasmic extract
B26: PcOxP_DB01_A05 (scFv, V domains shown)
VH: B1 VH with A32Y, S57D, S105N
VL: B3 VL
notes: scFv in periplasmic extract
B27: PcOxP_DB04_H10 (scFv, V domains shown)
VH: B1 VH with F27A, A32F, M34V, S57D
VL: B1 VL with A57P, E96Q
notes: scFv in periplasmic extract
B28: PcOxP_DB01_B03 (scFv, V domains shown)
VH: B1 VH with D31S, A32Y, S57D
VL: B3 VL
notes: scFv in periplasmic extract
B29: PcOxP_DB01_B06 (scFv, V domains shown)
VH: B1 VH with D31S, A32Y, A55Y, S57D, Y107T
VL: B3 VL
notes: scFv in periplasmic extract

These binders were tested against BSA (UniProt P02769) (assay: scFv ELISA).
Chain of BSA (P02769 25-607 limits assumed): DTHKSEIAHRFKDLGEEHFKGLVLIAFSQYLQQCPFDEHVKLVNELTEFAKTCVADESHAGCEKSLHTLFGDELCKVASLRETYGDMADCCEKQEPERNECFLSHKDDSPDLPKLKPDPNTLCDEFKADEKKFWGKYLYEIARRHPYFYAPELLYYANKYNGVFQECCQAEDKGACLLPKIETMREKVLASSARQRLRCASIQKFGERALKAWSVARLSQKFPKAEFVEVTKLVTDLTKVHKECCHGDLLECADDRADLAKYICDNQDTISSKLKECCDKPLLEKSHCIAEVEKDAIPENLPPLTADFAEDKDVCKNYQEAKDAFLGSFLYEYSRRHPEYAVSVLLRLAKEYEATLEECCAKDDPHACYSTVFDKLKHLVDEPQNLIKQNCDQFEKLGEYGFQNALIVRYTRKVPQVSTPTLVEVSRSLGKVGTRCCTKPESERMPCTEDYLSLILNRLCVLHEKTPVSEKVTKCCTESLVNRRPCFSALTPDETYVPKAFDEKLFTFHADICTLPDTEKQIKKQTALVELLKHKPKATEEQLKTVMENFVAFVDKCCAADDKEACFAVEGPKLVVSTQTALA

Row | OD450 [OD450] | Binder
1 | 0.11 | B1
2 | 0.1 | B2
3 | 0.07 | B3
4 | 0.12 | B4
5 | 0.12 | B5
6 | 0.09 | B6
7 | 0.08 | B7
8 | 0.07 | B8
9 | 0.12 | B9
10 | 0.1 | B10
11 | 0.08 | B11
12 | 0.11 | B12
13 | 0.11 | B13
14 | 0.05 | B14
15 | 0.11 | B15
16 | 0.09 | B16
17 | 0.07 | B17
18 | 0.1 | B18
19 | 0.09 | B19
20 | 0.12 | B20
21 | 0.07 | B21
22 | 0.1 | B22
23 | 0.09 | B23
24 | 0.09 | B24
25 | 0.09 | B25
26 | 0.06 | B26
27 | 0.1 | B27
28 | 0.08 | B28
29 | 0.08 | B29

Each binder was assayed against Peptide 1: Biotin-…-[Tyr(PC)]-acid (assay: scFv ELISA).

Row | OD450 [OD450] | Binder
30 | 0.93 | B1
31 | 0.8 | B2
32 | 0.86 | B3
33 | 0.27 | B4
34 | 1.6 | B5
35 | 0.56 | B6
36 | 0.69 | B7
37 | 0.27 | B8
38 | 1.16 | B9
39 | 1.34 | B10
40 | 0.52 | B11
41 | 0.74 | B12
42 | 1.03 | B13
43 | 0.53 | B14
44 | 1.33 | B15
45 | 0.85 | B16
46 | 0.13 | B17
47 | 0.75 | B18
48 | 0.58 | B19
49 | 0.71 | B20
50 | 0.31 | B21
51 | 0.58 | B22
52 | 0.16 | B23
53 | 1.54 | B24
54 | 0.68 | B25
55 | 0.83 | B26
56 | 0.54 | B27
57 | 0.82 | B28
58 | 0.79 | B29

These binders were tested against Peptide 5: Biotin-…-[Tyr(PC)]-acid (assay: scFv ELISA).

Row | OD450 [OD450] | Binder
59 | 1.25 | B1
60 | 1.05 | B2
61 | 1.38 | B3
62 | 1.32 | B4
63 | 1.96 | B5
64 | 1.19 | B6
65 | 1.07 | B7
66 | 0.94 | B8
67 | 1.96 | B9
68 | 1.87 | B10
69 | 1.11 | B11
70 | 1.61 | B12
71 | 1.12 | B13
72 | 1.1 | B14
73 | 1.56 | B15
74 | 1.42 | B16
75 | 0.53 | B17
76 | 1.3 | B18
77 | 1.02 | B19
78 | 1.38 | B20
79 | 0.75 | B21
80 | 1.27 | B22
81 | 1.12 | B23
82 | 2.11 | B24
83 | 1.41 | B25
84 | 1.28 | B26
85 | 1.01 | B27
86 | 1.25 | B28
87 | 1.45 | B29

Molecular target: T1, Peptide 4: …
Assay: scFv ELISA
Method in brief: (§1)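 Bound scFv was read as OD450 after HRP–anti-V5 detection, TMB development and HCl stop. PPE with BSA was incubated 1 h at RT on BSA-blocked wells coated overnight at 4° C. with peptide, or on streptavidin wells loaded 1 h with biotinylated PC-peptides at 1 μg/mL.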

Row | OD450 [OD450] | Binder
88 | 0.06 | B1
89 | 0.07 | B2
90 | 0.05 | B3
91 | 0.07 | B4
92 | 0.07 | B5
93 | 0.06 | B6
94 | 0.05 | B7
95 | 0.05 | B8
96 | 0.06 | B9
97 | 0.06 | B10
98 | 0.05 | B11
99 | 0.06 | B12
100 | 0.07 | B13
101 | 0.04 | B14
102 | 0.06 | B15
103 | 0.07 | B16
104 | 0.04 | B17
105 | 0.06 | B18
106 | 0.06 | B19
107 | 0.07 | B20
108 | 0.04 | B21
109 | 0.07 | B22
110 | 0.05 | B23
111 | 0.05 | B24
112 | 0.06 | B25
113 | 0.04 | B26
114 | 0.08 | B27
115 | 0.05 | B28
116 | 0.05 | B29

Molecular target: T2, Peptide 8: …
Assay: scFv ELISA
Method in brief: as §1

Row | OD450 [OD450] | Binder
117 | 0.06 | B1
118 | 0.08 | B2
119 | 0.04 | B3
120 | 0.07 | B4
121 | 0.07 | B5
122 | 0.05 | B6
123 | 0.06 | B7
124 | 0.05 | B8
125 | 0.06 | B9
126 | 0.06 | B10
127 | 0.04 | B11
128 | 0.06 | B12
129 | 0.07 | B13
130 | 0.04 | B14
131 | 0.05 | B15
132 | 0.06 | B16
133 | 0.04 | B17
134 | 0.06 | B18
135 | 0.05 | B19
136 | 0.06 | B20
137 | 0.04 | B21
138 | 0.06 | B22
139 | 0.05 | B23
140 | 0.05 | B24
141 | 0.05 | B25
142 | 0.04 | B26
143 | 0.07 | B27
144 | 0.05 | B28
145 | 0.05 | B29
